From patent US20240376151A1, “STAPLED PEPTIDES AND METHODS THEREOF” (FOG PHARMACEUTICALS, INC., priority 2022, published 2024)
Ends that are not written are not given here.

What was measured:
Assay type in all cases: binding
CUL1 = biological target: T1, CUL1 (Homo sapiens, UniProt Q13616, L371D/V367R); experiment: Naive Library Presenter Screening (phage, NGS), CUL1; conditions: for interaction data at Target Concentration 10: CUL1 target concentration 10 nM; for interaction data at Target Concentration 30: CUL1 target concentration 30 nM; for interaction data at Target Concentration 100: CUL1 target concentration 100 nM; for interaction data at Target Concentration 300: CUL1 target concentration 300 nM; for interaction data at Target Concentration 1000: CUL1 target concentration 1000 nM
T1 construct: CUL1 (Uniprot ID: Q13616, residue 15-410, V367R/L371D); GST-TEV (N, cleaved yes); made in house; host or cells: E. coli BL21 CodonPlus
T1 sequence (Q13616 15-410 V367R/L371D): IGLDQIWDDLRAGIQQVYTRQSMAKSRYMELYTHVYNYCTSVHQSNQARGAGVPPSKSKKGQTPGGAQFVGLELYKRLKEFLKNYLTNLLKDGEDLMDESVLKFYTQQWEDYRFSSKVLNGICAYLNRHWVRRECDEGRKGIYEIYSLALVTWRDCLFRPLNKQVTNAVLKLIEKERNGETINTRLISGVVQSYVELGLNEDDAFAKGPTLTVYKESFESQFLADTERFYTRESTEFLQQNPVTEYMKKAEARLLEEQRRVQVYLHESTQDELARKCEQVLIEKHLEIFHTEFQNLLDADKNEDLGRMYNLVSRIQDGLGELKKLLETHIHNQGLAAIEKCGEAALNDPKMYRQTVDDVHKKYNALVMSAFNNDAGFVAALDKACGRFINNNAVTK

CUL4B = biological target: T2, CUL4B (Homo sapiens, UniProt Q13620, L520D/V516R); experiment: Naive Library Presenter Screening (phage, NGS), CUL4B; conditions: for interaction data at Target Concentration 10: CUL4B target concentration 10 nM; for interaction data at Target Concentration 30: CUL4B target concentration 30 nM; for interaction data at Target Concentration 100: CUL4B target concentration 100 nM; for interaction data at Target Concentration 300: CUL4B target concentration 300 nM; for interaction data at Target Concentration 1000: CUL4B target concentration 1000 nM
T2 construct: GST-TEV (N, cleaved yes); made in house; host or cells: E. coli BL21 CodonPlus
T2 sequence (Q13620 206-557 V516R/L520D): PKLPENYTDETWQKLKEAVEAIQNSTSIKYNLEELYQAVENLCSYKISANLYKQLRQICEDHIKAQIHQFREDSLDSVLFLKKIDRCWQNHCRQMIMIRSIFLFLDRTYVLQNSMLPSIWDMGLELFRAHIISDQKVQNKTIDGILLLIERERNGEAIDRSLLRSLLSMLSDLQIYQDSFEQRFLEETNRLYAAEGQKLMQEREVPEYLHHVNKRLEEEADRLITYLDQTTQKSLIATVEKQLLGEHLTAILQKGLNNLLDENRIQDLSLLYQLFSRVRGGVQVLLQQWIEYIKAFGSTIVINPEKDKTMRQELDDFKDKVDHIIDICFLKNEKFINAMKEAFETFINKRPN

CUL5 = biological target: T3, CUL5 (Homo sapiens, UniProt Q93034, L345D/V341R); experiment: Naive Library Presenter Screening (phage, NGS), CUL5; conditions: for interaction data at Target Concentration 10: CUL5 target concentration 10 nM; for interaction data at Target Concentration 30: CUL5 target concentration 30 nM; for interaction data at Target Concentration 100: CUL5 target concentration 100 nM; for interaction data at Target Concentration 300: CUL5 target concentration 300 nM; for interaction data at Target Concentration 1000: CUL5 target concentration 1000 nM
T3 construct: GST-TEV (N, cleaved yes); made in house; host or cells: E. coli BL21 CodonPlus
T3 sequence (Q93034 1-386 V341R/L345D): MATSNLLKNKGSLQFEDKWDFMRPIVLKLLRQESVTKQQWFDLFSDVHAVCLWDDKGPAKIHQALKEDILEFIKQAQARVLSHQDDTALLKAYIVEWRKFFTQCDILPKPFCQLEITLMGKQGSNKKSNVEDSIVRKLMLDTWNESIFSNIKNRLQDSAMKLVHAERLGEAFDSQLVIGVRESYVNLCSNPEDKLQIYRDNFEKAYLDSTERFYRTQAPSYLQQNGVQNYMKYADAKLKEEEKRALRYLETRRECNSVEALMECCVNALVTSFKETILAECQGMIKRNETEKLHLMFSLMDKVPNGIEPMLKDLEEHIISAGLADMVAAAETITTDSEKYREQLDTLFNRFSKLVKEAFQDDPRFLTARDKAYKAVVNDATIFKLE

Row | Sequence | interaction data at Target Concentration 10 (CUL4B) | interaction data at Target Concentration 30 (CUL4B) | interaction data at Target Concentration 100 (CUL4B) | interaction data at Target Concentration 300 (CUL4B) | interaction data at Target Concentration 1000 (CUL4B; first column) | interaction data at Target Concentration 1000 (CUL4B; second column) | interaction data at Target Concentration 10 (CUL5) | interaction data at Target Concentration 30 (CUL5) | interaction data at Target Concentration 100 (CUL5) | interaction data at Target Concentration 300 (CUL5) | interaction data at Target Concentration 1000 (CUL5; first column) | interaction data at Target Concentration 1000 (CUL5; second column) | other results
1 | DPAEFVCDWAALACLVD |  |  |  |  |  |  |  |  |  |  |  |  | interaction data at Target Concentration 10 (CUL1): 4; interaction data at Target Concentration 30 (CUL1): 32; interaction data at Target Concentration 100 (CUL1): 183; interaction data at Target Concentration 300 (CUL1): 247; interaction data at Target Concentration 1000 (CUL1; first column): 517; interaction data at Target Concentration 1000 (CUL1; second column): 300
2 | DPAEAACDIAALMCIID |  |  |  |  |  |  |  |  |  |  |  |  | interaction data at Target Concentration 10 (CUL1): 15; interaction data at Target Concentration 30 (CUL1): 13; interaction data at Target Concentration 100 (CUL1): 65; interaction data at Target Concentration 300 (CUL1): 211; interaction data at Target Concentration 1000 (CUL1; first column): 203; interaction data at Target Concentration 1000 (CUL1; second column): 195
3 | DPADRYCDMAAWVCERF | 1 | 1 | 15 | 248 | 340 | 0 |  |  |  |  |  |  | 
4 | DPAWFDCAEAAWQCVFI |  |  |  |  |  |  | 2 | 35 | 91 | 170 | 31 | 0 | 
5 | DPAWRACAQAAWDCIIA |  |  |  |  |  |  | 1 | 167 | 267 | 385 | 368 | 0 | 
6 | DPAWYECASAAWVCYSM |  |  |  |  |  |  | 0 | 13 | 94 | 60 | 171 | 0 | 
7 | DPADRQCLFAAWYCEHT | 0 | 10 | 0 | 6 | 11 | 2 |  |  |  |  |  |  | 
8 | DPAWMRCATAAWECVMT |  |  |  |  |  |  | 16 | 22 | 151 | 104 |  | 0 | 
9 | DPASRMCEMAAWFCENY | 0 | 3 | 11 | 13 | 78 | 0 |  |  |  |  |  |  | 
10 | DPATRMCELAAWTCEVW | 0 | 0 | 1 | 31 | 9 | 0 |  |  |  |  |  |  | 
11 | DPATFACANAAWECYAR |  |  |  |  |  |  | 0 | 6 | 25 | 11 | 35 | 0 | 
12 | DPAMNHCVLAAWVCDTF | 0 | 0 | 6 | 37 | 9 | 0 |  |  |  |  |  |  | 
13 | DPASRLCELAAWVCDSF | 4 | 15 | 139 | 319 | 251 | 0 |  |  |  |  |  |  | 

The next lines start with results.

Row | interaction data at Target Concentration 10 (CUL4B) | interaction data at Target Concentration 30 (CUL4B) | interaction data at Target Concentration 100 (CUL4B) | interaction data at Target Concentration 300 (CUL4B) | interaction data at Target Concentration 1000 (CUL4B; first column) | interaction data at Target Concentration 1000 (CUL4B; second column) | interaction data at Target Concentration 10 (CUL5) | interaction data at Target Concentration 30 (CUL5) | interaction data at Target Concentration 100 (CUL5) | interaction data at Target Concentration 300 (CUL5) | interaction data at Target Concentration 1000 (CUL5; first column) | interaction data at Target Concentration 1000 (CUL5; second column) | Sequence | other results
14 | 0 | 0 | 0 | 6 | 17 | 0 |  |  |  |  |  |  | DPADRWCELAAWICDEF | 
15 | 0 | 0 | 3 | 9 | 34 | 0 |  |  |  |  |  |  | DPADRQCIFAAWMCEAF | 
16 | 0 | 0 | 0 | 99 | 29 | 0 |  |  |  |  |  |  | DPAERHCQLAAWVCHQF | 
17 |  |  |  |  |  |  | 0 | 50 | 47 | 21 | 93 | 0 | DPAWRECAHAAWQCYIQ | 
18 | 1 | 0 | 13 | 56 | 73 | 0 |  |  |  |  |  |  | DPAQRACQFAAWICERF | 
19 |  |  |  |  |  |  | 0 | 13 | 30 | 40 | 14 | 0 | DPAIQQCAEAAWSCYVE | 
20 |  |  |  |  |  |  | 0 | 6 | 44 | 20 | 59 | 0 | DPAWWECAEAAWQCQVL | 
21 | 0 | 0 | 0 | 48 | 9 | 0 |  |  |  |  |  |  | DPADRLCELAAWVCQSF | 
22 |  |  |  |  |  |  | 14 | 59 | 284 | 284 | 265 | 0 | DPAWQWCAEAAWQCITH (not fully specified (C-terminus, bridges); cysteine pairing not given here) | 
23 |  |  |  |  |  |  | 0 | 14 | 13 | 58 | 11 | 0 | DPAWAICAEAAWDCFMI | 
24 |  |  |  |  |  |  | 5 | 61 | 106 | 119 | 152 | 0 | DPAWHMCAEAAWQCAFW (not fully specified (C-terminus, bridges); cysteine pairing not given here) | 
25 |  |  |  |  |  |  | 6 | 6 | 62 | 48 | 55 | 0 | DPAWMTCATAAWECYLA | 
26 | 0 | 0 | 15 | 31 | 18 | 0 |  |  |  |  |  |  | DPATTECILAAWICDRF | 
27 |  |  |  |  |  |  | 4 | 46 | 104 | 100 | 76 | 0 | DPAYYVCAEAAWNCLFE | 
28 | 0 | 0 | 47 | 20 | 12 | 0 |  |  |  |  |  |  | DPATRHCIFAAWACDRF | 
